{"source": "patent US20040002075A1", "about": "“Heat-resistant cysteine synthase” (priority 2001, published 2004)", "molecules": {"B1": {"name": "cysteine synthase: Heat-resistant cysteine synthase (O-acetylserine sulfhydrylase) of hyperthermophilic archaea Aeropyrum pernix K1, SEQ ID NO: 2, produced recombinantly in E. coli (protein)", "chain": "VALADISGYLDVLDSVRGFSYLENAREVLRSGEARCLGNPRSEPEYVKALYVIGASRIPVGDGCSHTLEELGVFDISVPGEMVFPSPLDFFERGKPTPLVRSRLQLPNGVRVWLKLEWYNPFSLSVKDRPAVEIISRLSRRVEKGSLVADATSSNFGVALSAVARLYGYRARVYLPGAAEEFGKLLPRLLGAQVIVDPEAPSTVHLLPRVMKDSKNEGFVHVNQFYNDANFEAHMRGTAREIFVQSRRGGLALRGVAGSLGTSGHMSAAAFYLQSVDPSIRAVLVQPAQGDSIPGIRRVETGMLWINMLDISYTLAEVTLEEAMEAVVEVARSDGLVIGPSGGAAVKALAKKAAEGDLEPGDYVVVVPDTGFKYLSLVQNALEGAGDSV", "modifications": "Aeropyrum pernix K1"}}, "key": {"[1]": {"test": "Optimal temperature, cysteine synthase activity assaying method (2)", "format": "biochemical", "settings": "4 minutes reaction, FIG. 2", "method": "The optimal temperature was determined by the following assaying method (2) for cysteine synthase activity. Assaying Method of Cysteine Synthase Activity (2) Purified enzyme was added to 50 mM potassium phosphate buffer (pH 7.5 or 7.0) containing 20 mM O-acetylserine and 2 mM sodium sulfide as substrates, and 0.2 mM pyridoxal 5′-phosphate so as to establish an enzyme concentration of 0.8 μg/mL, the reaction was brought about for 4 minutes, and the amount of cysteine synthesized was determined by the ninhydrin method to assay the enzyme activity."}, "[2]": {"test": "Heat resistance, residual activity after incubation, assaying method (1)", "format": "physicochemical", "settings": "for residual activity: 0.3 mg/mL enzyme in 50 mM potassium phosphate buffer (pH 6.7), FIG. 3", "method": "The optimal pH was determined by the following assaying method (1) for cysteine synthase activity. Assaying Method of Cysteine Synthase Activity (1) Four enzyme solution samples were prepared by adding cysteine synthase to 50 mM potassium phosphate buffer (pH 6.7) containing 1 mM EDTA and 0.2 mM pyridoxal 5′-phosphate so as to obtain an enzyme concentration of 0.3 mg/mL. The samples were incubated for 6 hours at 4° C., 80° C., and 100° C., respectively, to assay residual activity."}}}
{"molecule": "B1", "values": [{"measurement": "optimal temperature", "setting": "[1]; 50 mM potassium phosphate buffer pH 7.0", "value": "about 60 °C"}, {"measurement": "optimal temperature", "setting": "[1]; 50 mM potassium phosphate buffer pH 7.5", "value": "about 50 °C"}, {"measurement": "residual activity", "setting": "[2]; after 6 hours of incubation at 80° C.", "value": "about 97%"}, {"measurement": "residual activity", "setting": "[2]; after 6 hours of incubation at 100° C.", "value": "about 85%"}, {"measurement": "activity of the enzyme after heat-treatment", "setting": "[2]; heat-treatment at 80° C. for 6 hours", "value": "substantially unimpaired"}]}
